From PMC5428028, “Role for the ATPase inhibitory factor 1 in the environmental carcinogen-induced Warburg phenotype” (Scientific Reports, 2017)

Molecular target: the molecule itself
Test: western blot (band of dimer size after electrophoresis); mitochondrial fractions of F258 cells exposed to B[a]P (50 nM or 1 µM, 48 h), lysed in RIPA buffer; 24 kDa band beside the 12 kDa monomer; gel conditions not shown

B1: ATPase inhibitory factor 1 (IF1) (natural protein, rat (endogenous in F258), UniProt Q03344 26-107, looked up)
chain: GSDSSESMDSGAGSIREAGGAFGKREKAEEDRYFREKTREQLAALKKHHEDEIDHHSKEIERLQKQIERHKKKIKYLKNSEH
notes: monomeric form printed as 12 kDa, dimer band as 24 kDa; Detected with a polyclonal rabbit anti-ATPIF1 antibody, used only as a tool; The western blot methods are in the Supplementary Information; also called ATPIF1; source: endogenous, mitochondrial fraction of F258 rat liver epithelial cells, lysed in RIPA buffer
Which “stoichiometry N” value does the source give for B1 here?
The value was 2.
